The assay addresses T1, extracellular region of FGFR1 fused to the Fc fragment (UniProt P11362 22-376).
T1 construct: extracellular region of FGFR1; also called FGFR1-Fc; source: produced in mammalian cells; as described previously [27-29]
T1 sequence (looked up): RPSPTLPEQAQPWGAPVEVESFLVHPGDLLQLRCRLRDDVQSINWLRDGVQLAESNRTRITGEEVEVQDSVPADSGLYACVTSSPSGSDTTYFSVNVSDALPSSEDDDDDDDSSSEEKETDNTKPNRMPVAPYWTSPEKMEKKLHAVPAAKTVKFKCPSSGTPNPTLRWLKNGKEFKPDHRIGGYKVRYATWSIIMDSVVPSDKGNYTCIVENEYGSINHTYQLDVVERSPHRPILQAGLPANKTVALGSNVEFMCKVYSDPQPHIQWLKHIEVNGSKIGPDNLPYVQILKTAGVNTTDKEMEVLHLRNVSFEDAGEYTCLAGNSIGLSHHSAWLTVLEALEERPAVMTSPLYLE
The assay is described as follows: SPR; Biacore 3000, 25 °C; FGFR1-Fc amine-coupled at low density (about 1000 RU) on CM4; FHF1 0.1-3.2 uM at 30 ul/min; PBS, 0.05% Tween 20, 0.2% BSA, 0.02% NaN3, pH 7.4; KD from fitted saturation binding curve (equilibrium responses); 1:1 model did not fit. The note with it: both partners purified. Background: In SPR one partner is held on a chip, and binding of the other changes the refractive index at the surface.

B1: fibroblast growth factor homologous factor 1, short isoform (FHF1b) (ligand, human, UniProt P61328-2 1-181, looked up)
chain: MESKEPQLKGIVTRLFSQQGYFLQMHPDGTIDGTKDENSDYTLFNLIPVGLRVVAIQGVKASLYVAMNGEGYLYSSDVFTPECKFKESVFENYYVIYSSTLYRQQESGRAWFLGLNKEGQIMKGNRVKKTKPSSHFVPKPIEVCMYREPSLHEIGEKQGRSRKSSGTPTMNGGKVVNQDST
notes: short isoform (FHF1b) of human FHF1 (FGF12); construct in pDEST17; Construct from F. Nakayama; also called FGF12; source: E. coli BL21 CodonPlus (DE3) RIL, purified (His-Trap, desalting column)
As a reminder, the Kd is a measure of binding affinity in units of concentration. Higher therefore signals weaker binding. For B1, the affinity, expressed as Kd, was 0.612 µM. This lies in the sub-micromolar range.

These data come from publication PMC7193404, “FHF1 is a bona fide fibroblast growth factor that activates cellular signaling in FGFR-dependent manner” (Cell Communication and Signaling : CCS, 2020).
